Data as given in the supplement of paper PMC7125110.
± gives the standard error. For some of these results: This sample holds only a part of the variants without activity.

B1: glmS ribozyme (parent)
chain: AUAAAAGCGCCAGAACUACAGAAAUGUAGUUGACGAGGAGGAGGUUUAUCGAAUUUUCGGCGGAUGCCUCCAAA

Columns and labels:
Conditions in all cases: with glucosamine-6-phosphate
[1] = variants of: B1; experiment: kcat; higher = faster cleavage; RNA array
Summary of the method: (§1)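 Glucosamine-6-phosphate (40 μM to 10 mM) in HEPES/KCl/Mg(OAc)2 buffer was flowed over sequenced MiSeq chips, and tiles were imaged over ~14 h. Barcoded ribozyme variants there had been transcribed in situ by E. coli RNA polymerase and were tracked through a hybridised Cy3 probe at 37 °C. One- or two-exponential decay fits to per-tile medians, normalised to baseline and to non-cleaving reference variants, gave kobs. kcat and KM came from weighted Michaelis–Menten fits across concentrations.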

[2] = variants of: B1; experiment: KM; higher = weaker cofactor use; RNA array
Summary of the method: as §1

[3] = variants of: B1; experiment: self-cleavage kobs at 160 uM GlcN6P; higher = faster cleavage; RNA array
Summary of the method: as §1

[4] = variants of: B1; experiment: self-cleavage kobs at 640 uM GlcN6P; higher = faster cleavage; RNA array
Summary of the method: as §1

[5] = variants of: B1; experiment: self-cleavage kobs at 2500 uM GlcN6P; higher = faster cleavage; RNA array
Summary of the method: as §1

[6] = variants of: B1; experiment: self-cleavage kobs at 10000 uM GlcN6P; higher = faster cleavage; RNA array
Summary of the method: as §1

[7] = variants of: B1; experiment: self-cleavage kobs at 40 uM GlcN6P; higher = faster cleavage; RNA array
Summary of the method: as §1

| Variant | kcat [1] [s⁻¹] | KM [2] [µM] | self-cleavage kobs at 160 uM GlcN6P [3] [s⁻¹] | self-cleavage kobs at 640 uM GlcN6P [4] [s⁻¹] | self-cleavage kobs at 2500 uM GlcN6P [5] [s⁻¹] | self-cleavage kobs at 10000 uM GlcN6P [6] [s⁻¹] | self-cleavage kobs at 40 uM GlcN6P [7] [s⁻¹] |
| --- | --- | --- | --- | --- | --- | --- | --- |
| U46C U69A | 0.000242 ± 4.8e-05 | 686 ± 310 | 5.58e-05 ± 2.2e-05 | 9.77e-05 ± 2.8e-05 | 0.000199 ± 6.1e-05 | 0.000243 ± 6.5e-05 | – |
| U55C G66A | 0.0117 ± 0.003 | 1240 ± 450 | 0.00128 ± 0.0002 | 0.0034 ± 0.00061 | 0.0116 ± 0.0017 | 0.00884 ± 0.0018 | 0.0004 ± 6.8e-05 |
| G32U G41U | 0.000152 ± 3.7e-06 | 1640 ± 170 | – | 4.19e-05 ± 1.5e-05 | 9.36e-05 ± 1.9e-05 | 0.00013 ± 1e-05 | – |
| C34G C68U | 1.7e-05 ± 5.3e-06 | – | – | – | – | – | – |
| G60C C68G | 1.2e-05 ± 1.5e-06 | – | – | – | – | – | – |
| A14C C71G | 0.000465 ± 0.00016 | – | 3.11e-05 ± 1e-05 | 0.000228 ± 7.6e-05 | 0.00017 ± 2.9e-05 | 0.00038 ± 4.5e-05 | – |
| A14G G32C | 0.000222 ± 9e-06 | 1900 ± 190 | – | 5.72e-05 ± 1.5e-05 | 0.000115 ± 4.1e-05 | 0.000188 ± 2.8e-05 | – |
| A48G C71G | 1.72e-05 ± 7.5e-06 | – | – | – | – | – | – |
| C10U C16U | 1.06e-05 ± 1.7e-06 | – | – | – | – | – | – |
| G13A U31C | 0.00123 ± 0.00012 | 4560 ± 740 | 3.44e-05 ± 1.2e-05 | 0.000169 ± 3.3e-05 | 0.000441 ± 6.9e-05 | 0.00084 ± 0.00011 | – |
| G9A G13U | < 1e-05 | – | – | – | < 1e-05 | < 1e-05 | – |
| A42U U54C | 0.00019 ± 4.1e-05 | – | – | 6.5e-05 ± 1.1e-05 | 0.00024 ± 3.8e-05 | 0.000159 ± 1.7e-05 | – |
| A33U G40U | 5.28e-05 ± 4e-06 | – | < 1e-05 | – | – | 1.68e-05 ± 7.9e-06 | < 1e-05 |
| G40U U57C | 2.46e-05 ± 1.1e-05 | – | – | – | 3.3e-05 ± 1.4e-05 | – | < 1e-05 |
| U49G U56G | 0.000717 ± 1.9e-05 | 4760 ± 210 | – | 8.38e-05 ± 1.5e-05 | 0.000254 ± 4.7e-05 | 0.000484 ± 5.8e-05 | – |
| C11U C68U | 0.000418 ± 5.2e-05 | 1070 ± 290 | 6.59e-05 ± 1.1e-05 | 0.000135 ± 1.7e-05 | 0.000329 ± 3.1e-05 | 0.00036 ± 3.9e-05 | – |
| U54C U56G | 0.0154 ± 0.0051 | 2680 ± 1100 | 0.000649 ± 0.00019 | 0.0032 ± 0.0011 | – | 0.0133 ± 0.0027 | 0.000282 ± 4.7e-05 |
| A53U U55G A64C | 9.81e-05 ± 5.1e-06 | 3420 ± 520 | – | – | 4.12e-05 ± 1.6e-05 | 7.31e-05 ± 1.4e-05 | – |
